We go through six molecules from patent publication US20220064329A1 (Novo Nordisk, published 2022).

The target of test [1] is T1, recombinant human activated Factor VII (FVIIa) (human, UniProt P08709 61-212; P08709 213-466, Gla domain: ten glutamate residues may be gamma-carboxylated).
T1 sequence 1: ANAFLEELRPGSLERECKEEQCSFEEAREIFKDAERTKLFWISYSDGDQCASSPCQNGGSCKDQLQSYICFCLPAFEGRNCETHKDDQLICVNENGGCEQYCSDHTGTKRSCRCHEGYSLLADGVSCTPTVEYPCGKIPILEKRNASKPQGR
T1 sequence 2: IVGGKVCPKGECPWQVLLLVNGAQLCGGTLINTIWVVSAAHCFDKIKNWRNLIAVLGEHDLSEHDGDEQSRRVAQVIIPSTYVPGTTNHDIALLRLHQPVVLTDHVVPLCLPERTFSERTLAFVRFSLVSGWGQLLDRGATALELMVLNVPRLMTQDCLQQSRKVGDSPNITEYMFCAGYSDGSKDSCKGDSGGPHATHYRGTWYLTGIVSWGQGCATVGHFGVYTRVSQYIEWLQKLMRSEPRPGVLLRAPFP
Kind of test: cell-based or functional assay.

Test [2] addresses T1, recombinant human activated Factor VII …. Kind of test: SPR (Biacore T200), captured antibody, FVIIa injected at 5-135 nM, 1:1 model. Here is the method:
Anti-murine IgG (by GE Healthcare) was immobilised on a CM4 sensor chip using standard amine coupling chemistry kit (both supplied by GE Healthcare). […] The running buffer was prepared by diluting 10-fold the 10×HBS-P buffer (supplied by GE Healthcare) and supplemented with 1 mg/ml BSA and 5 mM CaCl₂) to give 10 mM HEPES, 150 mM NaCl, 0.05% v/v Polysorbate 20(P20), pH 7.4, 5 mM CaCl₂), 1 mg/ml bovine serum albumin (BSA). […] Regeneration of the chip was achieved using regeneration buffer consisting of 10 mM Gly-HCl pH 1.7 (supplied by GE Healthcare). Binding data were analysed according to a 1:1 model using BiaEvaluation 4.1 supplied by the manufacturer (Biacore AB, Uppsala, Sweden).

Test [3] concerns the target T2, recombinant human activated FVII (FVIIa) (human, UniProt P08709 61-212; P08709 213-466, ten glutamate residues of the Gla domain may be gamma-carboxylated).
T2 sequence 1: T1 sequence 1
T2 sequence 2: T1 sequence 2
Kind of test: cell-based or functional assay.

The target in test [4] is T3, sTLT1 (SEQ ID No: 3 with six histidine residues added at the C-terminus) (human, UniProt Q86YW5 16-162).
T3 construct: Soluble TLT-1 used in SPR
T3 sequence: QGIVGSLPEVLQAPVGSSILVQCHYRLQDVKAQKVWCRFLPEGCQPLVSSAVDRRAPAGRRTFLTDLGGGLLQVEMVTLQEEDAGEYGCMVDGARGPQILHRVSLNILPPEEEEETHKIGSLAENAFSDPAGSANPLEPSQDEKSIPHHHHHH
Kind of test: dissociation constant listed with the stimulatory activities (SPR).

For test [5], the target named is T2, recombinant human activated FVII (FVIIa). Described as above.
Test [6] addresses T3, sTLT1 (SEQ ID No: 3 with six histidine …). As to the kind of experiment: KD (TLT-1) listed for the biAbs of Example 30 (SPR value of Table 21). How it is done: (§1) Binding of sTLT1 (corresponding to SEQ ID No: 3 with six histidine residues added at the C-terminus) to biAb from (Example 4) was probed by surface plasmon resonance (Biacore T200) at 25° C. Anti-human IgG was immobilised on a CM5 sensor chip (both supplied by GE Healthcare) using standard amine coupling chemistry. Purified biAbs according to Table 21 (1 nM) were injected at a flow rate of 10 μl/min for 1 min. Subsequently, sTLT1, between 0 and 60 μM, were injected at a flow rate of […] for 3 min to allow for binding to the biAb followed by a 3 min buffer injection allowing for dissociation from the biAb. The running buffer was prepared by diluting 10-fold the 10×HBS-P buffer (supplied by GE Healthcare) and supplemented with 1 mg/ml BSA and 5 mM CaCl₂) to give 10 mM HEPES, 150 mM NaCl, 0.05% v/v Polysorbate 20, pH 7.4, 5 mM CaCl₂), 1 mg/ml bovine serum albumin (BSA). The running buffer was also used for dilution of biAb and sTLT1 samples. Regeneration of the chip was achieved using recommended regeneration buffer consisted of 3M MgCl2 (supplied by GE Healthcare). Binding data were analysed according to a 1:1 model using BiaEvaluation 4.1 supplied by the manufacturer (Biacore AB, Uppsala, Sweden).

The target is the same in test [7]. Kind of test: SPR, Biacore T200, 25 C; biAb captured on anti-human IgG, sTLT1 injected; 1:1 model. How it is done:
as §1
A general note: In SPR one partner is held on a chip, and binding of the other changes the refractive index at the surface.

The target of a further test is T4, murine FVII(a) (mouse, UniProt P70375 42-446).
T4 sequence (looked up): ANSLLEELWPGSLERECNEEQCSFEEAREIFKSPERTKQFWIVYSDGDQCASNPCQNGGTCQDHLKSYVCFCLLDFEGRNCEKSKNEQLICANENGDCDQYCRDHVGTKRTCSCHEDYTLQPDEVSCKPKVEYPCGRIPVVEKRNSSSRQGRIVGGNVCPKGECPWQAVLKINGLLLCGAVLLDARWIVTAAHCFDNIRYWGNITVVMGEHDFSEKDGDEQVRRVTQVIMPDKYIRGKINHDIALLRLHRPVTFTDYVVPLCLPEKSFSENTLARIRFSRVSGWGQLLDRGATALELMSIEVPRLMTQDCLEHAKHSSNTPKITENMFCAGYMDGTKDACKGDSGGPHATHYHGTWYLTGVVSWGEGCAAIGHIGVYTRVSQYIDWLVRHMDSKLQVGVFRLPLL
Kind of test: not told; stated as the reason for co-administering human FVII(a) in the mouse model.

For test [8], the target named is T2, recombinant human activated FVII (FVIIa). Kind of test: cell-based or functional assay. This is another data set of the same source.

Residue numbers refer to the chain shown, from its start. In names and notes the source's numbering stands. Read-outs that look alike come from different tables or passages of the source.

B1: mAb0048 (antibody, human IgG4 S228P, kappa, V domains shown)
VH: DVQLQESGPGLVEPSQSLSLTCTVTGYSITSDCAWSWIRQFPGNKLEWMGYINYSGSTNYNPSLKSRISVTRDTSKNQFFLRLSSVTAEDTATYYCTRSVNYYGNSFAVGYWGQGTSVTVSS
VL: DIVMTQSPATLSVTAGDRVSLSCRASQGISDYLHWYQQKSHESPRLLIKYTSQPVSGIPSRFSGSGSGSEFTLSINSVEPEDVGVYYCQNGHSFPLTFGAGTKLELKR
notes: murine variable domains, human IgG4 S228P constant domain (type A), human kappa; also called 11F2 murine/human chimera
B1: the “AT inhibition (kinh %)” value in test [1] was determined as 109%. Also, the Kd in test [2] stood at 0.029 nM.

B2: biAb0095 (bispecific antibody, human IgG4 S228P, kappa)
heavy 1: QVQLQESGPGLVKPSQTLSLTCTVSGYSISSDSAWSWIRQPPGKGLEWIGYIQYSGSTNYNPSLKSRVTISRDTSKNQFSLKLSSVTAADTAVYYCARSVNYYGNSFAVGYWGQGTLVTVSSASTKGPSVFPLAPCSRSTSESTAALGCLVKDYFPEPVTVSWNSGALTSGVHTFPAVLQSSGLYSLSSVVTVPSSSLGTKTYTCNVDHKPSNTKVDKRVESKYGPPCPPCPAPEFLGGPSVFLFPPKPKDTLMISRTPEVTCVVVDVSQEDPEVQFNWYVDGVEVHNAKTKPREEQFNSTYRVVSVLTVLHQDWLNGKEYKCKVSNKGLPSSIEKTISKAKGQPREPQVYTLPPSQEEMTKNQVSLTCLVKGFYPSDIAVEWESNGQPENNYKTTPPVLDSDGSFLLYSKLTVDKSRWQEGNVFSCSVMHEALHNHYTQKSLSLSLGK
light 1: EIVLTQSPATLSLSPGERATLSCRASQGISDYLHWYQQKPGEAPRLLIKYTSQPATGIPARFSGSGSGTDFTLTISSLEPEDFAVYYCQNGHSFPLTFGQGTKLEIKRTVAAPSVFIFPPSDEQLKSGTASVVCLLNNFYPREAKVQWKVDNALQSGNSQESVTEQDSKDSTYSLSSTLTLSKADYEKHKVYACEVTHQGLSSPVTKSFNRGEC
heavy 2: not shown
light 2: DIVMTQTPLSSPVTLGQPASISCRSSQSLVHRNGNTYFHWLQQRPGQPPRLLIYKVSNRFSGVPDRFSGSGAGTDFTLKISRVEAEDVGVYYCSQSTHVPYTFGQGTKLEIKRTVAAPSVFIFPPSDEQLKSGTASVVCLLNNFYPREAKVQWKVDNALQSGNSQESVTEQDSKDSTYSLSSTLTLSKADYEKHKVYACEVTHQGLSSPVTKSFNRGEC
notes: Duobody, constant domain type H (IgG4): anti-FVII(a) arm mAb0865, anti-TLT-1 arm mAb1047; also called mAb0865 x mAb1047
Take B2: the “Stimulation (fold): FXa generated by FVIIa with lipidated TLT-1 and 100 nM biAb, relative to free FVIIa” value (“Stimulation (fold) … relative to free FVIIa” for short) in [3] turned out to be 13.9 fold. Also, the Kd was determined as 75 nM in [4], 0.06 nM in test [5], 75 nM in [6] and 75 nM in [7].

B3: biAb0001 (bispecific antibody, human IgG4 S228P, kappa)
heavy 1: B2 heavy 1
light 1: B2 light 1
heavy 2: not shown
light 2: B2 light 2 with N33Q
notes: also called anti-FVII(a)/anti-TLT-1 bispecific antibody; mAb0865 x mAb1076
In the case of B3, the binding result with murine FVII(a) was “no binding”.

B4: biAb0015 (bispecific antibody, human IgG4 S228P, kappa)
heavy 1: B2 heavy 1
light 1: B2 light 1
heavy 2: not shown
light 2: B2 light 2 with N33P
notes: Duobody, constant domain type H (IgG4): anti-FVII(a) arm mAb0865, anti-TLT-1 arm mAb1038; also called mAb0865 x mAb1038
Turning to B4, in [3], the “Stimulation (fold) … relative to free FVIIa” value was 18.7 fold. In addition, the Kd in test [4] came out at 19 nM; in test [5] it was 0.06 nM; in test [6] it was 19 nM; in test [7], 19 nM.

B5: biAb0001 (bispecific antibody, human IgG4 S228P, kappa)
heavy 1: B2 heavy 1
light 1: B2 light 1
heavy 2: not shown
light 2: B2 light 2 with N33Q
notes: Duobody, constant domain type H (IgG4): anti-FVII(a) arm mAb0865, anti-TLT-1 arm mAb1076; also called anti-FVII(a)/anti-TLT-1 bispecific antibody; mAb0865 x mAb1076
For the molecule B5, the “Stimulation (fold) … relative to free FVIIa” value in test [3] and in [8] was 29.2 fold in each case. Besides, the Kd in test [4] is 2.9 nM; in test [5], 0.06 nM; in test [6], 2.9 nM; in [7], 2.9 nM.

B6: biAb0090 (bispecific antibody, human IgG4 S228P, kappa)
heavy 1: B2 heavy 1
light 1: B2 light 1
heavy 2: not shown
light 2: B2 light 2
notes: Duobody, constant domain type H (IgG4): anti-FVII(a) arm mAb0865, anti-TLT-1 arm mAb1049; also called mAb0865 x mAb1049
With B6, the “Stimulation (fold) … relative to free FVIIa” value in [3] stood at 11.1 fold. In addition, the dissociation constant (Kd) in test [4] turned out to be 320 nM; in test [5] it was 0.06 nM; in test [6], 320 nM; in [7], 320 nM.

For orientation: Kd means the equilibrium constant for the complex coming apart.
